The source of these data is the supplement of paper PMC5998384.

Series [1] deals with HeLa Kyoto. Description: solubility in G1/S (NP-40 vs SDS abundance) (log2 ratio); higher = more soluble. As to conditions: cell cycle stage: G1/S.
Series [2] has as its system HeLa Kyoto. Description: thermal stability score vs G1/S (z-score of summed log2 fold changes over temperatures); higher = more thermally stable than in G1/S.
The subject of series [3] is HeLa Kyoto. Description: solubility change mitosis vs G1/S (difference of NP-40 vs SDS log2 ratios) (log2 ratio difference); higher = more soluble in mitosis.
Series [4] has as its system HeLa Kyoto. Description: melting temperature (median over replicates), in situ; higher = more thermally stable.
Where [5] appears, read: cell cycle stage: early G1 (4.5 h after nocodazole release).
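Wherever melting temperature (median over replicates), in situ is given: HeLa Kyoto cells synchronized by double thymidine or nocodazole block, proteins quantified by TMT10plex mass spectrometry, three independent biological replicates.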
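Wherever solubility change mitosis vs G1/S (difference of NP-40 vs SDS log2 ratios) is given: synchronized HeLa Kyoto cells (double thymidine block for G1/S, nocodazole release for mitosis), protein amounts in NP-40 versus SDS lysates quantified by mass spectrometry, three biological replicates.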
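Wherever solubility in G1/S (NP-40 vs SDS abundance) is given: HeLa Kyoto cells arrested at G1/S by double thymidine block, proteins quantified by TMT10plex mass spectrometry in mild NP-40 versus SDS extracts, three biological replicates.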
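Wherever thermal stability score vs G1/S (z-score of summed log2 fold changes over temperatures) is given: synchronized HeLa Kyoto cells, proteins quantified by TMT10plex mass spectrometry, three biological replicates, mitosis taken 0.5 h after nocodazole release, G1/S directly after double thymidine block.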

With “MDGSGPFSCPICLEPLREPVTLPCGHNFCLACLGALWPHRGASGAGGPGGAARCPLCQEPFPDGLQLRKNHTLSELLQLRQGSGPGSGPGPAPALAPEPSAPSALPSVPEPSAPCAPEPWPAGEEPVRCDACPEGAALPAALSCLSCLASFCPAHLGPHERSPALRGHRLVPPLRRLEESLCPRHLRPLERYCRAERVCLCEACAAQEHRGHELVPLEQERALQEAEQSKVLSAVEDRMDELGAGIAQSRRTVALIKSAAVAERERVSRLFADAAAALQGFQTQVLGFIEEGEAAMLGRSQGDLRRQEEQRSRLSRARQNLSQVPEADSVSFLQELLALRLALEDGCGPGPGPPRELSFTKSSQAVRAVRDMLAVACVNQWEQLRGPGGNEDGPQKLDSEADAEPQDLESTNLLESEAPRDYFLKFAYIVDLDSDTADKFLQLFGTKGVKRVLCPINYPLSPTRFTHCEQVLGEGALDRGTYYWEVEIIEGWVSMGVMAEDFSPQEPYDRGRLGRNAHSCCLQWNGRSFSVWFHGLEAPLPHPFSPTVGVCLEYADRALAFYAVRDGKMSLLRRLKASRPRRGGIPASPIDPFQSRLDSHFAGLFTHRLKPAFFLESVDAHLQIGPLKKSCISVLKRR [TRIM47]”, in series [1], the “solubility in G1/S (log2)” value stood at 0.0943. Besides, the thermal stability score in series [2] (setting [5]) was found to be 0.521; in series [2] (cell cycle stage: mitosis), 1.84. Also, the “solubility change mitosis (log2)” value in series [3] is -0.052. For the same sequence, the values for the melting temperature in series [4] (cell cycle stage: G1/S) and in series [4] (cell cycle stage: mitosis) were 47.8 °C and 46.7 °C, respectively.

Regarding “MDIRKFFGVIPSGKKLVSETVKKNEKTKSDEETLKAKKGIKEIKVNSSRKEDDFKQKQPSKKKRIIYDSDSESEETLQVKNAKKPPEKLPVSSKPGKISRQDPVTYISETDEEDDFMCKKAASKSKENGRSTNSHLGTSNMKKNEENTKTKNKPLSPIKLTPTSVLDYFGTGSVQRSNKKMVASKRKELSQNTDESGLNDEAIAKQLQLDEDAELERQLHEDEEFARTLAMLDEEPKTKKARKDTEAGETFSSVQANLSKAEKHKYPHKVKTAQVSDERKSYSPRKQSKYESSKESQQHSKSSADKIGEVSSPKASSKLAIMKRKEESSYKEIEPVASKRKENAIKLKGETKTPKKTKSSPAKKESVSPEDSEKKRTNYQAYRSYLNREGPKALGSKEIPKGAENCLEGLIFVITGVLESIERDEAKSLIERYGGKVTGNVSKKTNYLVMGRDSGQSKSDKAAALGTKIIDEDGLLNLIRTMPGKKSKYEIAVETEMKKESKLERTPQKNVQGKRKISPSKKESESKKSRPTSKRDSLAKTIKKETDVFWKSLDFKEQVAEETSGDSKARNLADDSSENKVENLLWVDKYKPTSLKTIIGQQGDQSCANKLLRWLRNWQKSSSEDKKHAAKFGKFSGKDDGSSFKAALLSGPPGVGKTTTASLVCQELGYSYVELNASDTRSKSSLKAIVAESLNNTSIKGFYSNGAASSVSTKHALIMDEVDGMAGNEDRGGIQELIGLIKHTKIPIICMCNDRNHPKIRSLVHYCFDLRFQRPRVEQIKGAMMSIAFKEGLKIPPPAMNEIILGANQDIRQVLHNLSMWCARSKALTYDQAKADSHRAKKDIKMGPFDVARKVFAAGEETAHMSLVDKSDLFFHDYSIAPLFVQENYIHVKPVAAGGDMKKHLMLLSRAADSICDGDLVDSQIRSKQNWSLLPAQAIYASVLPGELMRGYMTQFPTFPSWLGKHSSTGKHDRIVQDLALHMSLRTYSSKRTVNMDYLSLLRDALVQPLTSQGVDGVQDVVALMDTYYLMKEDFENIMEISSWGGKPSPFSKLDPKVKAAFTRAYNKEAHLTPYSLQAIKASRHSTSPSLDSEYNEELNEDDSQSDEKDQDAIETDAMIKKKTKSSKPSKPEKDKEPRKGKGKSSKK [RFC1]”, the “solubility in G1/S (log2)” value in series [1] was -0.641. Also, the thermal stability score stood at 3.61 in series [2] (setting [5]) and 4.94 in series [2] (cell cycle stage: mitosis). Moreover, the “solubility change mitosis (log2)” value in series [3] stood at 0.447. Besides, the melting temperature in series [4] (cell cycle stage: G1/S) came to 47.2 °C; in series [4] (cell cycle stage: mitosis), 49.5 °C.

For the sequence “MDIRPNHTIYINNMNDKIKKEELKRSLYALFSQFGHVVDIVALKTMKMRGQAFVIFKELGSSTNALRQLQGFPFYGKPMRIQYAKTDSDIISKMRGTFADKEKKKEKKKAKTVEQTATTTNKKPGQGTPNSANTQGNSTPNPQVPDYPPNYILFLNNLPEETNEMMLSMLFNQFPGFKEVRLVPGRHDIAFVEFENDGQAGAARDALQGFKITPSHAMKITYAKK [SNRPB2]”, the “solubility in G1/S (log2)” value in series [1] was determined as 0.221. Further, the thermal stability score in series [2] (setting [5]) is -2.85; in series [2] (cell cycle stage: mitosis) it was -4.3. In series [3], the “solubility change mitosis (log2)” value was 0.472. Besides, the melting temperature in series [4] (cell cycle stage: G1/S) was determined as 54.2 °C; in series [4] (cell cycle stage: mitosis) it was 53.2 °C.

Consider “MDIYDTQTLGVVVFGGFMVVSAIGIFLVSTFSMKETSYEEALANQRKEMAKTHHQKVEKKKKEKTVEKKGKTKKKEEKPNGKIPDHDPAPNVTVLLREPVRAPAVAVAPTPVQPPIIVAPVATVPAMPQEKLASSPKDKKKKEKKVAKVEPAVSSVVNSIQVLTSKAAILETAPKEVPMVVVPPVGAKGNTPATGTTQGKKAEGTQNQSKKAEGAPNQGRKAEGTPNQGKKTEGTPNQGKKAEGTPNQGKKAEGTPNQGKKAEGAQNQGKKVDTTPNQGKKVEGAPTQGRKAEGAQNQAKKVEGAQNQGKKAEGAQNQGKKGEGAQNQGKKAEGAQNQGKKAEGAQNQGKKAEGAQNQGKKAEGAQNQGKKAEGAQNQGKKAEGAQNQGKKVEGAQNQGKKAEGAQNQGKKAEGAQNQGKKAEGAQNQGKKAEGAQNQGKKAEGAQNQGKKAEGAQNQGKKAEGAQNQGKKVEGAQNQGKKAEGAQNQGKKAEGAQNQGKKAEGAQNQGQKGEGAQNQGKKTEGAQGKKAERSPNQGKKGEGAPIQGKKADSVANQGTKVEGITNQGKKAEGSPSEGKKAEGSPNQGKKADAAANQGKKTESASVQGRNTDVAQSPEAPKQEAPAKKKSGSKKKGEPGPPDADGPLYLPYKTLVSTVGSMVFNEGEAQRLIEILSEKAGIIQDTWHKATQKGDPVAILKRQLEEKEKLLATEQEDAAVAKSKLRELNKEMAAEKAKAAAGEAKVKKQLVAREQEITAVQARMQASYREHVKEVQQLQGKIRTLQEQLENGPNTQLARLQQENSILRDALNQATSQVESKQNAELAKLRQELSKVSKELVEKSEAVRQDEQQRKALEAKAAAFEKQVLQLQASHRESEEALQKRLDEVSRELCHTQSSHASLRADAEKAQEQQQQMAELHSKLQSSEAEVRSKCEELSGLHGQLQEARAENSQLTERIRSIEALLEAGQARDAQDVQASQAEADQQQTRLKELESQVSGLEKEAIELREAVEQQKVKNNDLREKNWKAMEALATAEQACKEKLLSLTQAKEESEKQLCLIEAQTMEALLALLPELSVLAQQNYTEWLQDLKEKGPTLLKHPPAPAEPSSDLASKLREAEETQSTLQAECDQYRSILAETEGMLRDLQKSVEEEEQVWRAKVGAAEEELQKSRVTVKHLEEIVEKLKGELESSDQVREHTSHLEAELEKHMAAASAECQNYAKEVAGLRQLLLESQSQLDAAKSEAQKQSDELALVRQQLSEMKSHVEDGDIAGAPASSPEAPPAEQDPVQLKTQLEWTEAILEDEQTQRQKLTAEFEEAQTSACRLQEELEKLRTAGPLESSETEEASQLKERLEKEKKLTSDLGRAATRLQELLKTTQEQLAREKDTVKKLQEQLEKAEDGSSSKEGTSV [RRBP1]”, for which, in series [1], the “solubility in G1/S (log2)” value stood at 0.0657. Moreover, the thermal stability score in series [2] (setting [5]) was 2.64; in series [2] (cell cycle stage: mitosis), 7.14. The “solubility change mitosis (log2)” value in series [3] worked out at 0.448. Further, the melting temperature in series [4] (cell cycle stage: G1/S) is 53.2 °C; in series [4] (cell cycle stage: mitosis) it was 53.7 °C.
